For experiment [1], the target named is T1, human SEZ6 expressed on stably transfected CHO-K1 cells (human, UniProt Q53EL9 20-994).
T1 construct: also called CHO-SEZ6; hSEZ6
T1 sequence: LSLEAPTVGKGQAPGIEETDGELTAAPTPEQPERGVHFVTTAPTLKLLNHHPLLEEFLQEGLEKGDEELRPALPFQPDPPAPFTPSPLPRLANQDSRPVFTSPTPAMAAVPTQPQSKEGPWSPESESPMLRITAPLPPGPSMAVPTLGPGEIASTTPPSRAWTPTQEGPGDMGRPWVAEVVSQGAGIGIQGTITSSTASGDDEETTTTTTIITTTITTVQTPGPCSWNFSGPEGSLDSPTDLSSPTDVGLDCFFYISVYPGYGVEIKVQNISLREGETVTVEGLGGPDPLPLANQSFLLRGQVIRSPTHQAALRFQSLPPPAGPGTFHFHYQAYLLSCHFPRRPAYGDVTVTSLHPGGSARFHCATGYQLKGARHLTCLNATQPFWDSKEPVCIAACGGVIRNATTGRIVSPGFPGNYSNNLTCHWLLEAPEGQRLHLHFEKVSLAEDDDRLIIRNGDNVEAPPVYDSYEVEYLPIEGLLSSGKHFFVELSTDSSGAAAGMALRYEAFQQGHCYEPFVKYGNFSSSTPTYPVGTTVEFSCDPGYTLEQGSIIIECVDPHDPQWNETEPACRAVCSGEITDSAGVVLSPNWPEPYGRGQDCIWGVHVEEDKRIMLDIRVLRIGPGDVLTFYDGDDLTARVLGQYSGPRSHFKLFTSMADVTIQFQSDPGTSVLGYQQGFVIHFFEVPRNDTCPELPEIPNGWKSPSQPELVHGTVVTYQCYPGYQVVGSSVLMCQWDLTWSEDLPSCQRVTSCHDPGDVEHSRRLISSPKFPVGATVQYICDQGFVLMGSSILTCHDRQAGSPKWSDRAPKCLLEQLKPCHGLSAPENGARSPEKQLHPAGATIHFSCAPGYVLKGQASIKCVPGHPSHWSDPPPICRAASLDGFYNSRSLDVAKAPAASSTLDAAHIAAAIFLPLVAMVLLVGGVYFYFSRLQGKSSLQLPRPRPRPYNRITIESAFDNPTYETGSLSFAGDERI
The experiment can be described thus: flow cytometry on CHO-K1 cells expressing human SEZ6.

In experiment [2] the target is T1, human SEZ6 expressed on stably …. The description is as above. This is another data set of the same source.
In experiment [3] the target is T2, cynomolgus monkey SEZ6 expressed on stably transfected CHO-K1 cells (cynomolgus monkey, UniProt Q53EL9 20-994 (human entry)).
T2 construct: also called CHO-cynoSEZ6; monkey SEZ6 on the cell membrane
T2 chain: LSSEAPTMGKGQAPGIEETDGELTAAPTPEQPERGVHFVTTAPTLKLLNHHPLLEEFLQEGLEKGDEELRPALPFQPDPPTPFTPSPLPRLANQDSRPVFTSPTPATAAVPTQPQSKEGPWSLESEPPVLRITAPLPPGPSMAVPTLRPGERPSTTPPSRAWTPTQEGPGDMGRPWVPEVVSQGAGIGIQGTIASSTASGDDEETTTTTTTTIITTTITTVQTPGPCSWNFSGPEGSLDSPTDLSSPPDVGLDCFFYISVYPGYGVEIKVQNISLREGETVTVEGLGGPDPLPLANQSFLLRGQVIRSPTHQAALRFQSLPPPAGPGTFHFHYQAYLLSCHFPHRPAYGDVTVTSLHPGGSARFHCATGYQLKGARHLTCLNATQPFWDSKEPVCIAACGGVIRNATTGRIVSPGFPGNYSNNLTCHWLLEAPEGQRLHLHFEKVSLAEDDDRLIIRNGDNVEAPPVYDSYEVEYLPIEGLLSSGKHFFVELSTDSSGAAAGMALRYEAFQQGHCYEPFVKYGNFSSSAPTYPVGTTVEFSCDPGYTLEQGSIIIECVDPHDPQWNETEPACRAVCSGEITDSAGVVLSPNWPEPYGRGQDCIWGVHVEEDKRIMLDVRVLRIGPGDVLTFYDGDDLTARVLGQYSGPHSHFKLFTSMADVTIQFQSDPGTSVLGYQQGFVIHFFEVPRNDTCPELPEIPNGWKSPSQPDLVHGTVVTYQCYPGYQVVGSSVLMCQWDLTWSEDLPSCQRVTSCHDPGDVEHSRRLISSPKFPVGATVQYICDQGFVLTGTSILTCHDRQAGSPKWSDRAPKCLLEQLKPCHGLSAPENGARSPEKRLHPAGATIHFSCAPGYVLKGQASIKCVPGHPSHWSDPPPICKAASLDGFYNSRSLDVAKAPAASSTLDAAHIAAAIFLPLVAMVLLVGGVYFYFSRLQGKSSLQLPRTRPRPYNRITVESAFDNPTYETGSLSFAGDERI
Briefly: flow cytometry on CHO-K1 cells expressing cynomolgus monkey SEZ6. On the technique in general: In flow cytometry, cells or beads pass a laser one at a time.

Experiment [4] deals with T1, human SEZ6 expressed on stably …. The experiment can be described thus: flow cytometry on CHO-K1 cells expressing human SEZ6. This is another data set of the same source.

Consider one molecule from EP4714971A1 (Shanghai Hansoh Biomedical Co., Ltd., dated 2024).

Like-named read-outs stand apart in the source and are kept apart here.

For orientation: EC50 means the concentration at which the effect is half-maximal.

B1: hSC200 (hSC17.200) (antibody, human IgG1, kappa, V domains shown)
VH: EVQLVQSGAEVKKPGESLKISCKGSGYSFTSSWINWVRQMPGKGLEWMGRIYPGEGDTNYNGNFEGQVTISADKSISTAYLQWSSLKASDTAMYYCTRGLVMDYWGQGTLVTVSS
VL: EIVLTQSPATLSLSPGERATLSCRASQSVDYNGISYMHWYQQKPGQAPRLLIYAASNVQSGIPARFSGSGSGTDFTLTISSLEPEDFAVYYCQQSIEDPPTFGGGTKVEIKR
notes: also called control molecule; control antibody
Consider B1, for which the EC50 in experiment [1] is 0.19 nM; in experiment [2], 0.21 nM; in experiment [3], 0.26 nM; in experiment [4], 0.66 nM. For the same molecule, the MFImax in experiment [2] was determined as 3940; in experiment [4], 3300.
